One may read the Kd as the constant that tells how readily two partners part at equilibrium.

In data set [1] the target is T1, HEPN domain of SACSIN (tag removed) (UniProt Q9NZJ4 4441-4579).
T1 sequence: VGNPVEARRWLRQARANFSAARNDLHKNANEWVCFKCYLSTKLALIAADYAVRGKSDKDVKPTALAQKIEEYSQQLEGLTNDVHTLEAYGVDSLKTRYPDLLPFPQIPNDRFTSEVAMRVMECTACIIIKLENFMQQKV
Briefly: BLI; 75 nM to 10 uM protein; BLI: 20 mM potassium phosphate pH 7.4, 150 mM KCl, 0.05% Tween-20, 25 C; pull-down: PBS, 2 mM MgCl2, 0.2% NP-40, 0.05% BSA, RNase inhibitor, room temperature. As to conditions: protein: recombinant; tags: GST removed by thrombin; chain copies: 2; label: biotin; 1 strand.

For data set [2], the target named is T1, HEPN domain of SACSIN (tag removed). As to the kind of experiment: BLI; BLI: 20 mM potassium phosphate pH 7.4, 150 mM KCl, 0.05% Tween-20, 25 C; pull-down: PBS, 2 mM MgCl2, 0.2% NP-40, 0.05% BSA, RNase inhibitor, room temperature. As to conditions: protein: recombinant; tags: GST removed by thrombin; chain copies: 2; label: 5' biotin; 1 strand; two putative G-quadruplex-forming stretches. Background: Biolayer interferometry detects binding as a change in optical thickness at a sensor tip.

Take AACCAACUUUCGAUCUCUUGUAGAUCUGUUCU (ssRNA) [non-GC-rich RNA 32 nt]: in data set [1], the binding result is given as “no binding”.
Turning to CGGGGGCGGCGGCGGCGGCGGCGGCAGCGGGG (ssRNA) [GC-rich RNA 32 nt (predicted HEPN interacting RNA)], the dissociation constant Kd in data set [2] is 2600 ± 300 nM.

For the origin of these results see publication PMC13669270, “The isolated HEPN domain of SACSIN exhibits RNA-binding activity”.
